In article PMC5553292:

Target: Recombinant human PDK2 (pyruvate dehydrogenase kinase 2) (human)
Assay: dynamic light scattering

stoichiometry N: 2
Substance: Recombinant human PDK2 (pyruvate dehydrogenase kinase 2) (enzyme)
